Laboratory results taken from patent US20100166733A1.

Molecular target: MCP-1 (known wild type human MCP-1, commercial, R&D #279-MC) (human) (UniProt P13500)
Experiment: cell-based or functional assay

UniProt P13500, sequence (P13500 24-99): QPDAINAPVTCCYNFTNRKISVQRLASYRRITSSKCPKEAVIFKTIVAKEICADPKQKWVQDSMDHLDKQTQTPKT

- inhibition of MCP-1-induced THP-1 cell migration (transwell, cells counted by FACS), IC50: 400 pM
- inhibition of MCP-1-induced THP-1 cell migration (transwell, cells counted by FACS), percent inhibition: < 90%
Substance: MCP-1-65-Fc variant (MCP-1 splice variant MCP-1-65 fused to mutated N297A human IgG1 Fc) (Fc fusion)
